Test results taken from IntAct's records for PubMed 29892012.

B1: Ribosome assembly protein METTL17, mitochondrial (Homo sapiens), Q9H7H0 (parent)
chain: MAAALKCLLTLGRWCPGLGVAPQARALAALVPGVTQVDNKSGFLQKRPHRQHPGILKLPHVRLPQALANGAQLLLLGSAGPTMENQVQTLTSYLWSRHLPVEPEELQRRARHLEKKFLENPDLSQTEEKLRGAVLHALRKTTYHWQELSYTEGLSLVYMAARLDGGFAAVSRAFHEIRARNPAFQPQTLMDFGSGTGSVTWAAHSIWGQSLREYMCVDRSAAMLVLAEKLLKGGSESGEPYIPGVFFRQFLPVSPKVQFDVVVSAFSLSELPSKADRTEVVQTLWRKTGHFLVLVENGTKAGHSLLMDARDLVLKGKEKSPLDPRPGFVFAPCPHELPCPQLTNLACSFSQAYHPIPFSWNKKPKEEKFSMVILARGSPEEAHRWPRITQPVLKRPRHVHCHLCCPDGHMQHAVLTARRHGRDLYRCARVSSWGDLLPVLTPSAFPPSTAQDPSES
partner: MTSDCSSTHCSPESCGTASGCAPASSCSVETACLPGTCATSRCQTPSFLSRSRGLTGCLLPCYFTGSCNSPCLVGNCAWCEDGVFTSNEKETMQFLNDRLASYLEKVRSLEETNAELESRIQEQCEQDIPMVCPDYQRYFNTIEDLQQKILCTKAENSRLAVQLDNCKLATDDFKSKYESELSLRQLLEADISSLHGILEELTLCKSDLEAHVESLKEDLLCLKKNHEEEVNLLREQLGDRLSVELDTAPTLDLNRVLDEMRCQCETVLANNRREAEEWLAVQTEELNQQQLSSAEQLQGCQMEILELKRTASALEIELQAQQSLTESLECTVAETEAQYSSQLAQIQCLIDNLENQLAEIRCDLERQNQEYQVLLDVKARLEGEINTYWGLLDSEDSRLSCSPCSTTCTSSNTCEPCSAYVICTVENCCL
B2: Myotubularin-related protein 9 (Homo sapiens), Q96QG7 (parent)
chain: MEFAELIKTPRVDNVVLHRPFYPAVEGTLCLTGHHLILSSRQDNTEELWLLHSNIDAIDKRFVGSLGTIIIKCKDFRIIQLDIPGMEECLNIASSIEALSTLDSITLMYPFFYRPMFEVIEDGWHSFLPEQEFELYSSATSEWRLSYVNKEFAVCPSYPPIVTVPKSIDDEALRKVATFRHGGRFPVLSYYHKKNGMVIMRSGQPLTGTNGRRCKEDEKLINATLRAGKRGYIIDTRSLNVAQQTRAKGGGFEQEAHYPQWRRIHKSIERYHILQESLIKLVEACNDQTHNMDRWLSKLEASNWLTHIKEILTTACLAAQCIDREGASILIHGTEGTDSTLQVTSLAQIILEPRSRTIRGFEALIEREWLQAGHPFQQRCAQSAYCNTKQKWEAPVFLLFLDCVWQILRQFPCSFEFNENFLIMLFEHAYASQFGTFLGNNESERCKLKLQQKTMSLWSWVNQPSELSKFTNPLFEANNLVIWPSVAPQSLPLWEGIFLRWNRSSKYLDEAYEEMVNIIEYNKELQAKVNILRRQLAELETEDGMQESP
partner: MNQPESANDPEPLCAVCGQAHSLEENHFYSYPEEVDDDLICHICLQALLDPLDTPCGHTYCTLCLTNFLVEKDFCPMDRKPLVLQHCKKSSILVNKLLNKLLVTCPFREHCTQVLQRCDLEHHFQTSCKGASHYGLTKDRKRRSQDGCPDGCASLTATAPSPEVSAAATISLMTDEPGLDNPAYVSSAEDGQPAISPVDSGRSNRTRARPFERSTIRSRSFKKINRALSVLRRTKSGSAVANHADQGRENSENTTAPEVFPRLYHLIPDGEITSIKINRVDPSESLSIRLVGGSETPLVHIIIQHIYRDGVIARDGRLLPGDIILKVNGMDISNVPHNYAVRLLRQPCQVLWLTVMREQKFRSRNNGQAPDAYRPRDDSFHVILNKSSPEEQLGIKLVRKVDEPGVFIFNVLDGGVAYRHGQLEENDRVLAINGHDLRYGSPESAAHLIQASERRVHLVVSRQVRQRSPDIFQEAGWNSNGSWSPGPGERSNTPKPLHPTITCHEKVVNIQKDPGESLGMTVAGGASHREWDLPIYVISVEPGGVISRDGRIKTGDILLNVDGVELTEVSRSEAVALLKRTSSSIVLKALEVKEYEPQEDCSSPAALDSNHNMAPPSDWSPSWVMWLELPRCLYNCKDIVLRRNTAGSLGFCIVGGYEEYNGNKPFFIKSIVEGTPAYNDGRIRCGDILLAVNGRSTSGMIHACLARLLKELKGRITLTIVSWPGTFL
B3: Ligand of Numb protein X 2 (Homo sapiens), Q8N448 (parent)
chain: MGTTSDEMVSVEQTSSSSLNPLCFECGQQHWTRENHLYNYQNEVDDDLVCHICLQPLLQPLDTPCGHTFCYKCLRNFLQEKDFCPLDRKRLHFKLCKKSSILVHKLLDKLLVLCPFSSVCKDVMQRCDLEAHLKNRCPGASHRRVALERRKTSRTQAEIENENGPTLLDPAGTLSPEADCLGTGAVPVERHLTSASLSTWSEEPGLDNPAFEESAGADTTQQPLSLPEGEITTIEIHRSNPYIQLGISIVGGNETPLINIVIQEVYRDGVIARDGRLLAGDQILQVNNYNISNVSHNYARAVLSQPCNTLHLTVLRERRFGNRAHNHSDSNSPREEIFQVALHKRDSGEQLGIKLVRRTDEPGVFILDLLEGGLAAQDGRLSSNDRVLAINGHDLKYGTPELAAQIIQASGERVNLTIARPGKPQPGNTIREAGNHSSSSQHHTPPPYYSRPSSHKDLTQCVTCQEKHITVKKEPHESLGMTVAGGRGSKSGELPIFVTSVPPHGCLARDGRIKRGDVLLNINGIDLTNLSHSEAVAMLKASAASPAVALKALEVQIVEEATQNAEEQPSTFSENEYDASWSPSWVMWLGLPSTLHSCHDIVLRRSYLGSWGFSIVGGYEENHTNQPFFIKTIVLGTPAYYDGRLKCGDMIVAVNGLSTVGMSHSALVPMLKEQRNKVTLTVICWPGSLV
partner: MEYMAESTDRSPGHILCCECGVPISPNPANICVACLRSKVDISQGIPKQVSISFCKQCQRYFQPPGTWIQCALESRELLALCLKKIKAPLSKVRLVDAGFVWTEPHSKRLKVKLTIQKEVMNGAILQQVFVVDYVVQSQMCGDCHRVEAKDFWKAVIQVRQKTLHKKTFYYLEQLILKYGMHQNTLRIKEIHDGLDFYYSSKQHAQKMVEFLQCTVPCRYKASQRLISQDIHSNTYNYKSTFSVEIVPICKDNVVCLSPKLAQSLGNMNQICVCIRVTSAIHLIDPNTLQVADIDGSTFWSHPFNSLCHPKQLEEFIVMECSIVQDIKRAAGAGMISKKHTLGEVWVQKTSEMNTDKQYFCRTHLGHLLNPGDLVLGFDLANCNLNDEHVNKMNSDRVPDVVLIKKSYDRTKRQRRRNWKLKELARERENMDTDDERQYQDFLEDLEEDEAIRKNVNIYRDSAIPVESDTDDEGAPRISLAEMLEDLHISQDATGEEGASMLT
B4: Cell division cycle-associated 7-like protein (Homo sapiens), Q96GN5 (parent)
chain: MELATRYQIPKEVADIFNAPSDDEEFVGFRDDVPMETLSSEESCDSFDSLESGKQQDVRFHSKYFTEELRRIFIEDTDSETEDFAGFTQSDLNGKTNPEVMVVESDLSDDGKASLVSEEEEDEEEDKATPRRSRSRRSSIGLRVAFQFPTKKLANKPDKNSSSEQLFSSARLQNEKKTILERKKDCRQVIQREDSTSESEDDSRDESQESSDALLKRTMNIKENKAMLAQLLAELNSMPDFFPVRTPTSASRKKTVRRAFSEGQITRRMNPTRSARPPEKFALENFTVSAAKFAEEFYSFRRRKTIGGKCREYRRRHRISSFRPVEDITEEDLENVAITVRDKIYDKVLGNTCHQCRQKTIDTKTVCRNQGCCGVRGQFCGPCLRNRYGEDVRSALLDPDWVCPPCRGICNCSYCRKRDGRCATGILIHLAKFYGYDNVKEYLESLQKELVEDN
partner: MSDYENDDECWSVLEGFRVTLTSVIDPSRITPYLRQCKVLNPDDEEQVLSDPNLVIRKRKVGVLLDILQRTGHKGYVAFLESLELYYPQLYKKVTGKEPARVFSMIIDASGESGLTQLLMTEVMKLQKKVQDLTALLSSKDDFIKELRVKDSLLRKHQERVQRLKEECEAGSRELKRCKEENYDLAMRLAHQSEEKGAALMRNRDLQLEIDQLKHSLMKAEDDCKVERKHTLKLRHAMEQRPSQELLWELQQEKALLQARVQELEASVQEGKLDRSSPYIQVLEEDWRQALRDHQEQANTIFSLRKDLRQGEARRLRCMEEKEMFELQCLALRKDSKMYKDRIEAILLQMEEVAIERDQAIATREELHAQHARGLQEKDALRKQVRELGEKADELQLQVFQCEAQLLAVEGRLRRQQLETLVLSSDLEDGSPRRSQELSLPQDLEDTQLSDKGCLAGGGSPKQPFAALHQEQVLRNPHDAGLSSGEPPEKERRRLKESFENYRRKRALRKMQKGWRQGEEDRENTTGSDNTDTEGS
B5: Alpha-ketoglutarate-dependent dioxygenase alkB homolog 3 (Homo sapiens), Q96Q83 (parent)
chain: MEEKRRRARVQGAWAAPVKSQAIAQPATTAKSHLHQKPGQTWKNKEHHLSDREFVFKEPQQVVRRAPEPRVIDREGVYEISLSPTGVSRVCLYPGFVDVKEADWILEQLCQDVPWKQRTGIREDITYQQPRLTAWYGELPYTYSRITMEPNPHWHPVLRTLKNRIEENTGHTFNSLLCNLYRNEKDSVDWHSDDEPSLGRCPIIASLSFGATRTFEMRKKPPPEENGDYTYVERVKIPLDHGTLLIMEGATQADWQHRVPKEYHSREPRVNLTFRTVYPDPRGAPW
partner: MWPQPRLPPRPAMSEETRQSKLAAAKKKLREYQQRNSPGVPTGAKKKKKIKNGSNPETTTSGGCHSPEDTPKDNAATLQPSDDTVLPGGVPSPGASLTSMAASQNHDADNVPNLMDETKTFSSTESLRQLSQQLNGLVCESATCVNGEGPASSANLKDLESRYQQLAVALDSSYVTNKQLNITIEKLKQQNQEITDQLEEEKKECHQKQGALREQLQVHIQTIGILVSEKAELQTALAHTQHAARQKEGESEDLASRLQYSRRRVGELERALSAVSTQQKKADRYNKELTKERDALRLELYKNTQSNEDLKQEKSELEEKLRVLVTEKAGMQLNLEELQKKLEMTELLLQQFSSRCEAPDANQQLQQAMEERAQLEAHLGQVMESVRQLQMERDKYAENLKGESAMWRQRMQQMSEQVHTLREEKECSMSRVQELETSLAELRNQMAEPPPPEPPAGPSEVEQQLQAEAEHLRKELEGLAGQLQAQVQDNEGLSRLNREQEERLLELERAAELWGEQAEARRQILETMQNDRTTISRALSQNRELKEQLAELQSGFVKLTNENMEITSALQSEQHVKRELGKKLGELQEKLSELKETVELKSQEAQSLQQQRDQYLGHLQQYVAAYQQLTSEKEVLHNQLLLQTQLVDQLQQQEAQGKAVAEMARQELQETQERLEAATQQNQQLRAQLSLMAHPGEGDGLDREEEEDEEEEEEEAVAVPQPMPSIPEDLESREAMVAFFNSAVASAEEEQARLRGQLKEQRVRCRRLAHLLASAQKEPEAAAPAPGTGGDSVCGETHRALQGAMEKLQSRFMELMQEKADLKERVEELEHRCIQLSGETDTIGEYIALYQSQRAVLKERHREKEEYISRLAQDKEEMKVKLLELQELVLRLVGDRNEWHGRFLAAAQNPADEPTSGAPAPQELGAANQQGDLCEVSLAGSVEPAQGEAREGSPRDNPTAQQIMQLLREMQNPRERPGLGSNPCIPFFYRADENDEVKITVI
B6: Syntaxin-3 (Homo sapiens), Q13277 (parent)
chain: MKDRLEQLKAKQLTQDDDTDAVEIAIDNTAFMDEFFSEIEETRLNIDKISEHVEEAKKLYSIILSAPIPEPKTKDDLEQLTTEIKKRANNVRNKLKSMEKHIEEDEVRSSADLRIRKSQHSVLSRKFVEVMTKYNEAQVDFRERSKGRIQRQLEITGKKTTDEELEEMLESGNPAIFTSGIIDSQISKQALSEIEGRHKDIVRLESSIKELHDMFMDIAMLVENQGEMLDNIELNVMHTVDHVEKARDETKKAVKYQSQARKKLIIIIVLVVVLLGILALIIGLSVGLN
partner: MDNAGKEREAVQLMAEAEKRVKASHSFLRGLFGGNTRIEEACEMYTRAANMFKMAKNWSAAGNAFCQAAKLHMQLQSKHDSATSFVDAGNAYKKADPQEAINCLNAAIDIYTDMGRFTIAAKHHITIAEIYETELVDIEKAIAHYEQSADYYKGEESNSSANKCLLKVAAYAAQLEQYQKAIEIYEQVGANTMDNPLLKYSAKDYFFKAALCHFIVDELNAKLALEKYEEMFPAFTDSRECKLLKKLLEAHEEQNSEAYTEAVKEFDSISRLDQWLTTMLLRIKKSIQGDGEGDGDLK

Variants of: B1
Settings: with KRT40, Q6A162

| effect of a mutation on the interaction | Variant |
| --- | --- |
| with no effect | R212H |

Variants of: B2
Settings: with lnx1_human LNX1, Q8TBB1

| effect of a mutation on the interaction | Variant |
| --- | --- |
| with no effect | R359S |

Variants of: B3
Settings: with nmd3_human NMD3, Q96D46

| effect of a mutation on the interaction | Variant |
| --- | --- |
| with no effect | P669A |

Variants of: B4
Settings: with card9_human CARD9, Q9H257

| effect of a mutation on the interaction | Variant |
| --- | --- |
| with no effect | R268H |

Variants of: B5
Settings: with goga2_human GOLGA2, Q08379

| effect of a mutation on the interaction | Variant |
| --- | --- |
| with no effect | R64H |

Variants of: B6
Settings: with snab_human NAPB

| effect of a mutation on the interaction | Variant |
| --- | --- |
| disrupting interaction strength | K199E |
